From PMC3135787

How the values were obtained:
[1] = substrate: Nc1nc2c(ncn2[C@@H]2O[C@H](COP(=O)(O)O)[C@@H](O)[C@H]2O)c(=O)[nH]1; test: hGUK1-mediated phosphorylation, coupled spectrophotometric assay; assay type: biochemical, human; settings: other: hGUK1, 37°C
Hint1 activity assay = substrate: COc1nc(N)nc2c1ncn2[C@@H]1O[C@H](COP(=O)(O)N[C@@H](C)C(=O)O)[C@@H](O)[C@@]1(C)F; test: Hint1 activity assay; assay type: biochemical; settings: other: Hint1, 37 °C, pH 7.2

Row | Protein | Km [1] [µM] | kcat [1] [s⁻¹] | kcat/Km [1] [M⁻¹ s⁻¹] | Km (Hint1 activity assay) [µM] | kcat (Hint1 activity assay) [s⁻¹]
1 | Human guanylate kinase (hGUK1) (Homo sapiens) (protein) MSGPRPVVLSGPSGAGKSTLLKRLLQEHSGIFGFSVSHTTRNPRPGEENGKDYYFVTREVMQRDIAAGDFIEHAEFSGNLYGTSKVAVQAVQAMNRICVLDVDLQGVRNIKATDLRPIYISVQPPSLHVLEQRLRQRNTETEESLVKRLAAAQADMESSKEPGLFDVVIINDSLDQAYAELKEALSEEIKKAQRTGA | 19.1 ± 4.5 | 74.7 ± 17.6 | 3.9e+06 | – | –
2 | Hint1 (Homo sapiens) (protein) MADEIAKAQVARPGGDTIFGKIIRKEIPAKIIFEDDRCLAFHDISPQAPTHFLVIPKKHISQISVAEDDDESLLGHLMIVGKKCAADLGLNKGYRMVVNEGSDGGQSVYHVHLHVLGGRQMHWPPG | – | – | – | 445 ± 182 | 0.0573
